Measurements: US20140087995A1 (published 2014)
Numbered stars: 1 amine (or outer) side, 2 acyl side, 3 side chain; on linkers, the order of the positions; unused ones are H or OH. Bridge positions count the residues as written; N and C are the ends. Side chains are listed from the residue outwards. Ends that are not written are not given here. * marks the point of attachment. C20 diacid = O=C(O)CCCCCCCCCCCCCCCCCCC(=O)*; γGlu = O=C(O)[C@H](CCC(=O)[*:2])N[*:1]

T1: human amylin receptor (Amylin 3(a) receptor: human calcitonin receptor co-expressed with RAMP-3) (human, UniProt P30988 25-474; O60896 24-148, limits assumed)
T1 construct: whole, on cells; Used as cell membranes prepared from the Amylin 3(a)/CRE-luc BHK cells (Assay V); the complex is called the human amylin receptor; also called hAmylin-R; hAmylinR
T1 sequence (looked up) 1: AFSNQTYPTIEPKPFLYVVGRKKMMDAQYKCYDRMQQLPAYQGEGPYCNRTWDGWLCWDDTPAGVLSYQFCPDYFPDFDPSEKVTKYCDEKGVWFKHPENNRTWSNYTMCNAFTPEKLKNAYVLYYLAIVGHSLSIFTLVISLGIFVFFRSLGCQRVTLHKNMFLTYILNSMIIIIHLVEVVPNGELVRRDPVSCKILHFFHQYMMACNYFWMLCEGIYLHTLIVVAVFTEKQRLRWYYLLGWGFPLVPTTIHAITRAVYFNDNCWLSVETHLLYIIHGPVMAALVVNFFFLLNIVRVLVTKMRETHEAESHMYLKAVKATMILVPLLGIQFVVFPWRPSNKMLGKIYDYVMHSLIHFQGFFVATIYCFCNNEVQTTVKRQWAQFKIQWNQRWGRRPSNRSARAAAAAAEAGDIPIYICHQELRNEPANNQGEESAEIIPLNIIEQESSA
T1 sequence (looked up) 2: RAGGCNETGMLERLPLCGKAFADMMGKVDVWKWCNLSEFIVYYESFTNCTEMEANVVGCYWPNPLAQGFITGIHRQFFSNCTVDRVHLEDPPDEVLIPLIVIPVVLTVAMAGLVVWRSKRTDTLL

B1: N^ε1-[(4S)-4-carboxy-4-[[(4S)-4-carboxy-4-(19-carboxynonadecanoylamino)butanoyl]amino]butanoyl]-[Glu14,Arg17,Pro21,Pro27,His34,Glu35]-h-amylin (peptide)
peptide: K([γGlu-γGlu-C20 diacid])CNTATCATQRLAEFLRHSSPNFGAIPSSTNVGHETY-NH2
modifications: disulfide 2-7; N-terminus assumed
SMILES: CC[C@H](C)[C@H](NC(=O)[C@H](C)NC(=O)CNC(=O)[C@H](Cc1ccccc1)NC(=O)[C@H](CC(N)=O)NC(=O)[C@@H]1CCCN1C(=O)[C@H](CO)NC(=O)[C@H](CO)NC(=O)[C@H](Cc1c[nH]cn1)NC(=O)[C@H](CCCNC(=N)N)NC(=O)[C@H](CC(C)C)NC(=O)[C@H](Cc1ccccc1)NC(=O)[C@H](CCC(=O)O)NC(=O)[C@H](C)NC(=O)[C@H](CC(C)C)NC(=O)[C@H](CCCNC(=N)N)NC(=O)[C@H](CCC(N)=O)NC(=O)[C@@H](NC(=O)[C@H](C)NC(=O)[C@@H]1CSSC[C@H](NC(=O)[C@@H](N)CCCCNC(=O)CC[C@H](NC(=O)CC[C@H](NC(=O)CCCCCCCCCCCCCCCCCCC(=O)O)C(=O)O)C(=O)O)C(=O)N[C@@H](CC(N)=O)C(=O)N[C@@H]([C@@H](C)O)C(=O)N[C@@H](C)C(=O)N[C@@H]([C@@H](C)O)C(=O)N1)[C@@H](C)O)C(=O)N1CCC[C@H]1C(=O)N[C@@H](CO)C(=O)N[C@@H](CO)C(=O)N[C@H](C(=O)N[C@@H](CC(N)=O)C(=O)N[C@H](C(=O)NCC(=O)N[C@@H](Cc1c[nH]cn1)C(=O)N[C@@H](CCC(=O)O)C(=O)N[C@H](C(=O)N[C@@H](Cc1ccc(O)cc1)C(N)=O)[C@@H](C)O)C(C)C)[C@@H](C)O
notes: modifications are with respect to human amylin
B2: N^ε1-[(4S)-4-carboxy-4-[[(4S)-4-carboxy-4-(19-carboxynonadecanoylamino)butanoyl]amino]butanoyl]-[Glu14,Arg17,Pro21,Pro27,Pro34,His35]-h-amylin (peptide)
peptide: K([γGlu-γGlu-C20 diacid])CNTATCATQRLAEFLRHSSPNFGAIPSSTNVGPHTY-NH2
modifications: disulfide 2-7 (inferred)
notes: as for B1
B3: N^ε1-[(4S)-4-carboxy-4-[[(4S)-4-carboxy-4-(19-carboxynonadecanoylamino)butanoyl]amino]butanoyl]-[Glu14,Arg17,Pro21,Pro31,Pro34,Glu35]-h-amylin (peptide)
peptide: K([γGlu-γGlu-C20 diacid])CNTATCATQRLAEFLRHSSPNFGAILSSTPVGPETY-NH2
modifications: disulfide 2-7 (inferred)
notes: as for B1
B4: N^ε1-[(4S)-4-carboxy-4-[[(4S)-4-carboxy-4-(19-carboxynonadecanoylamino)butanoyl]amino]butanoyl]-[Glu14,Arg17,Pro21,Pro27,Pro34,Arg35]-h-amylin (peptide)
peptide: K([γGlu-γGlu-C20 diacid])CNTATCATQRLAEFLRHSSPNFGAIPSSTNVGPRTY-NH2
modifications: disulfide 2-7; N-terminus assumed
SMILES: CC[C@H](C)[C@H](NC(=O)[C@H](C)NC(=O)CNC(=O)[C@H](Cc1ccccc1)NC(=O)[C@H](CC(N)=O)NC(=O)[C@@H]1CCCN1C(=O)[C@H](CO)NC(=O)[C@H](CO)NC(=O)[C@H](Cc1c[nH]cn1)NC(=O)[C@H](CCCNC(=N)N)NC(=O)[C@H](CC(C)C)NC(=O)[C@H](Cc1ccccc1)NC(=O)[C@H](CCC(=O)O)NC(=O)[C@H](C)NC(=O)[C@H](CC(C)C)NC(=O)[C@H](CCCNC(=N)N)NC(=O)[C@H](CCC(N)=O)NC(=O)[C@@H](NC(=O)[C@H](C)NC(=O)[C@@H]1CSSC[C@H](NC(=O)[C@@H](N)CCCCNC(=O)CC[C@H](NC(=O)CC[C@H](NC(=O)CCCCCCCCCCCCCCCCCCC(=O)O)C(=O)O)C(=O)O)C(=O)N[C@@H](CC(N)=O)C(=O)N[C@@H]([C@@H](C)O)C(=O)N[C@@H](C)C(=O)N[C@@H]([C@@H](C)O)C(=O)N1)[C@@H](C)O)C(=O)N1CCC[C@H]1C(=O)N[C@@H](CO)C(=O)N[C@@H](CO)C(=O)N[C@H](C(=O)N[C@@H](CC(N)=O)C(=O)N[C@H](C(=O)NCC(=O)N1CCC[C@H]1C(=O)N[C@@H](CCCNC(=N)N)C(=O)N[C@H](C(=O)N[C@@H](Cc1ccc(O)cc1)C(N)=O)[C@@H](C)O)C(C)C)[C@@H](C)O
notes: modifications are with respect to human amylin; also called compound 110
B5: N^ε1-[(4S)-4-carboxy-4-[[(4S)-4-carboxy-4-(19-carboxynonadecanoylamino)butanoyl]amino]butanoyl]-[Glu14,Arg17,Pro21,Pro27,Pro34,Phe37]-h-amylin (peptide)
peptide: K([γGlu-γGlu-C20 diacid])CNTATCATQRLAEFLRHSSPNFGAIPSSTNVGPNTF-NH2
modifications: disulfide 2-7; N-terminus assumed
SMILES: CC[C@H](C)[C@H](NC(=O)[C@H](C)NC(=O)CNC(=O)[C@H](Cc1ccccc1)NC(=O)[C@H](CC(N)=O)NC(=O)[C@@H]1CCCN1C(=O)[C@H](CO)NC(=O)[C@H](CO)NC(=O)[C@H](Cc1c[nH]cn1)NC(=O)[C@H](CCCNC(=N)N)NC(=O)[C@H](CC(C)C)NC(=O)[C@H](Cc1ccccc1)NC(=O)[C@H](CCC(=O)O)NC(=O)[C@H](C)NC(=O)[C@H](CC(C)C)NC(=O)[C@H](CCCNC(=N)N)NC(=O)[C@H](CCC(N)=O)NC(=O)[C@@H](NC(=O)[C@H](C)NC(=O)[C@@H]1CSSC[C@H](NC(=O)[C@@H](N)CCCCNC(=O)CC[C@H](NC(=O)CC[C@H](NC(=O)CCCCCCCCCCCCCCCCCCC(=O)O)C(=O)O)C(=O)O)C(=O)N[C@@H](CC(N)=O)C(=O)N[C@@H]([C@@H](C)O)C(=O)N[C@@H](C)C(=O)N[C@@H]([C@@H](C)O)C(=O)N1)[C@@H](C)O)C(=O)N1CCC[C@H]1C(=O)N[C@@H](CO)C(=O)N[C@@H](CO)C(=O)N[C@H](C(=O)N[C@@H](CC(N)=O)C(=O)N[C@H](C(=O)NCC(=O)N1CCC[C@H]1C(=O)N[C@@H](CC(N)=O)C(=O)N[C@H](C(=O)N[C@@H](Cc1ccccc1)C(N)=O)[C@@H](C)O)C(C)C)[C@@H](C)O
notes: as for B1
B6: N^ε1-[(4S)-4-carboxy-4-[[(4S)-4-carboxy-4-(19-carboxynonadecanoylamino)butanoyl]amino]butanoyl]-[Glu14,Arg17,Pro23,Pro34,Glu35]-h-amylin (peptide)
peptide: K([γGlu-γGlu-C20 diacid])CNTATCATQRLAEFLRHSSNNPGAILSSTNVGPETY-NH2
modifications: disulfide 2-7; N-terminus assumed
SMILES: CC[C@H](C)[C@H](NC(=O)[C@H](C)NC(=O)CNC(=O)[C@@H]1CCCN1C(=O)[C@H](CC(N)=O)NC(=O)[C@H](CC(N)=O)NC(=O)[C@H](CO)NC(=O)[C@H](CO)NC(=O)[C@H](Cc1c[nH]cn1)NC(=O)[C@H](CCCNC(=N)N)NC(=O)[C@H](CC(C)C)NC(=O)[C@H](Cc1ccccc1)NC(=O)[C@H](CCC(=O)O)NC(=O)[C@H](C)NC(=O)[C@H](CC(C)C)NC(=O)[C@H](CCCNC(=N)N)NC(=O)[C@H](CCC(N)=O)NC(=O)[C@@H](NC(=O)[C@H](C)NC(=O)[C@@H]1CSSC[C@H](NC(=O)[C@@H](N)CCCCNC(=O)CC[C@H](NC(=O)CC[C@H](NC(=O)CCCCCCCCCCCCCCCCCCC(=O)O)C(=O)O)C(=O)O)C(=O)N[C@@H](CC(N)=O)C(=O)N[C@@H]([C@@H](C)O)C(=O)N[C@@H](C)C(=O)N[C@@H]([C@@H](C)O)C(=O)N1)[C@@H](C)O)C(=O)N[C@@H](CC(C)C)C(=O)N[C@@H](CO)C(=O)N[C@@H](CO)C(=O)N[C@H](C(=O)N[C@@H](CC(N)=O)C(=O)N[C@H](C(=O)NCC(=O)N1CCC[C@H]1C(=O)N[C@@H](CCC(=O)O)C(=O)N[C@H](C(=O)N[C@@H](Cc1ccc(O)cc1)C(N)=O)[C@@H](C)O)C(C)C)[C@@H](C)O
notes: as for B1

Each binder was assayed against T1, human amylin receptor (Amylin 3(a) …) (assay: SPA competition binding, displacement of 125I-rat amylin from membranes of BHK cells with human calcitonin receptor + RAMP-3 (Assay V)).
How it was run: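 Membranes from BHK Amylin 3(a)/CRE-luc cells (35 ng/μL final) were mixed with SPA beads and test compounds in 50 mM Hepes pH 7.4 with 1 mM CaCl2, 5 mM MgCl₂, 0.1% OA and 0.02% Tween20. Incubation ran 120 min at 25° C with shaking; IC₅₀ came from one-site competition fitting.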

Row | IC50 [nM] | Binder
1 | 0.525 | B1
2 | 0.377 | B2
3 | 0.069 | B3
4 | 0.326 | B4
5 | 0.152 | B5
6 | 1.19 | B6
